The values that follow are results of earlier work, collected in patent publication US10500169B2, “Supression of IgE production by compounds derived from traditional chinese medicine” (Sean N. Parker Foundation, priority 2014, dated 2019).

The data set concerns peanut allergic patients.

B1: TNX-901: anti-IgE antibody (antibody, chains of the INN, looked up, V domains shown)
VH: QVQLVQSGAEVKKPGASVKVSCKASGYTFSMYWLEWVRQAPGHGLEWVGEISPGTFTTNYNEKFKARATFTADTSTNTAYMELSSLRSEDTAVYYCARFSHFSGSNYDYFDYWGQGTLVTVSS
VL: DILLTQSPGTLSLSPGERATLSCRASQSIGTNIHWYQQKPGQAPRLLIKYASESISGIPSRFSGSGSGTDFTLTISRLEPEDFAMYYCQQSDSWPTTFGQGTKVEIK
For the molecule B1, the “median threshold of sensitivity to peanut after treatment” value (increased from 178 mg peanut protein) is given as 2.8 grams. Besides, the “symptoms following peanut challenge” value (vs placebo group) is reported as “significant decrease in symptoms”.
